Experimental data as given in the DeepSol protein solubility set.

Experiment: soluble on expression in E. coli; label from the status in PepcDB or PDB records
With “MVDFKMTKEGLVLLIKDYQNLEEVLNAISARITQMGGFFAKGDRISLMIENHNKHSQDIPRIVSHLRNLGLEVSQILVGSTVEGKENDLKVQSRTTVESTGKVIKRNIRSGQTVVHSGDVIVFGNVNKGAEILAGGSVVVFGKAQGNIRAGLNEGGQAVVAALDLQTSLIQIAGFITHSKGEENVPSIAHVKGNRIVIEPFDKVSFERSE” the “soluble on expression in E. coli” value was “soluble”. With “MGSDKIHHHHHHMAEVHVIGQIIGATGFSESSLFCKWGIHTGAAWKLLSGVREGQTQVDTPQIGDMAYWSHPIDLHFATKGLQGWPRLHLQVWSQDSFGRCQLAGYGFCHVPSSPGTHQLDCPTWRPLGSWREQLARAFVGGGPQLLHADTIYSGADRYRLHTAAGGTVHLGIGLLLRHFDRYGVEC” the “soluble on expression in E. coli” value was “not soluble”. With “ALIDVVVVCDESNSIYPWDAVKNFLEKFVQGLDIGPTKTQVGLIQYANNPRVVFNLNTYKTKEEMIVATSQTSQYGGDLTNTFGAIQYARKYAYSAASGGRRSATKVMVVVTDGESHDGSMLKAVIDQCNHDNILRFGIAVLGYLNRNALDTKNLIKEIKAIASIPTERYFFNVSDEAALLEKAG” the “soluble on expression in E. coli” value was “soluble”. With “MSEFWKARNWQRKFLVTGRRCFHPMELFSEIKNRYFQLMFRIINECAEGKSKSEVLKIIDEGEFGQKVIGKNQKSFSDLVLNRCAPDENLNLLIEKDGMYYPSIMNSDESGNMAGNAAKKITRPPLPVRFSQIEKAWLKALLDKEEARMILSRETFDKLQKELAGIDTPIKDEYFEFTNKIKLPEIANQKAYEENFRLLLNAIIQEKPIRYNNIDKKGNMYNDRLALPVSIEYSMRDGRFRVSMYLLDENRPVMANVFTLSDIRIVDEDVGFDRETAKRLLLEQKYSEEPIILEVTDEKAAMERCFMCFSGMERTARSLGNNKYEIKLNYYLFEEENLIRNIISLGPYVKVISPQRIVDEVVARVKKAISLYNI” the “soluble on expression in E. coli” value was “not soluble”. In the case of “MGSDKIHHHHHHVTPFAQTAAQTDHYDVIVIGAGPSGSVAASLLHQQGKRVLVLEKQHFPRFSIGESLLPCCMQVIAEANMLDAVNQAGYQFKNGAAFNANGRSTYFDFTDKFTPGPGTTFQVERGDFDKLLADTAASQGVEIRYGQRVDAVDLSHNPRLTISDEQGASYELSADYLLDASGFGRVLPRLLDLERPSNLPSRTAIFTHIQDNIDSVDMGDYHFDRNKILISVHPDNRDIWYWLIPFSNGRCSLGVVGEPHLLGQDADLEATNLEATLIRLVREEPRLKQLLSRAEIIRKPAKLAGYSANVSTLASDKFALLGNAGEFLDPVFSSGVTIAMQSASIAAKCVVKQLNGESVDWQTEYAQPLMRGVDTFRTYVQAWYDGRFQDVIFYQDPNPKIKQMICSILAGYAWDESNPFVAESERRLNMVVELCR”, the “soluble on expression in E. coli” value is reported as “not soluble”. In the case of “MVKEGWMVHYTSRDNLRKRHYWRLDSKCLTLFQNESGSKYYKEIPLSEILRISSPRDFTNISQGSNPHCFEIITDTMVYFVGENNGDSSHNPVLAATGVGLDVAQSWEKAIRQALM”, the “soluble on expression in E. coli” value is reported as “soluble”. For “MGSDKIHHHHHHMEKQSDSYYISAVQAGDTESFAPLVERYSDMLYALLCRLLQDEEDAADLLQDTFVKAFRHISRFDGRSSFSTWIYRIAYNEAIDHLRRHKAYVTDRVEELPDVPDEDLEPSGEDPELLQQALDSLPAADKALLLMFYSDDLSVRDIAEVTGMSESNVKVKLHRLRTKLYKMMRK”, the “soluble on expression in E. coli” value was “not soluble”. With “MNIIIATTKSWNIKNAQKFKKENESKYNTTIITNKDELTFEKVKLINPEYILFPHWSWIIPKEIFENFTCVVFHMTDLPFGRGGSPLQNLIERGIKKTKISAIKVDGGIDTGDIFFKRDLDLYGTAEEIFMRASKIIFNDMIPELLTKRPVPQKQEGEATVFQRRKPEQSEISPDFDLEKIYDYIRMLDGEGYPRAFIKYGKYRLEFSRASMKNGKIIADVEIIEGDENE” the “soluble on expression in E. coli” value was “soluble”. For “MSLSENEQFSQMEAKARARMKERGVEVSDIAELVFFLQKKYHPDLTIDECTLNVNRVLAKREVQNAILTGIELDVLAEQKKLSEPLQTMLEIDESLYGVDEVLAFSIVNIYGSIGFTNYGYIDKEKPGILKRLNDKSTGECHTFLDDIVGAISAAASSRLAHRARHTEEGGSHHHHHH”, the “soluble on expression in E. coli” value was “soluble”. In the case of “SAGAAPTTAFGQAVIGPPGSGKTTYCLGMSEFLRALGRRVAVVNLDPANEGLPYECAVDVGELVGLGDVMDALRLGPNGGLLYCMEYLEANLDWLRAKLDPLRGHYFLFDCPGQVELCTHHGALRSIFSQMAQWDLRLTAVHLVDSHYCTDPAKFISVLCTSLATMLHVELPHINLLSKMDLIEHYGKLAFNLDYYTEVLDLSYLLDHLASDPFFRHYRQLNEKLVRLIEDYSLVSFIPLNIQDKESIQRVLQAVDKANGYCFGAQEQRSLEAMMSAAMGADFHFSSTLGIQEKYLAPSNQSVEQEAMQL”, the “soluble on expression in E. coli” value is reported as “not soluble”. In the case of “MVQDQLTSILTTVGLNLMAKLTDNSRSVVISPSEVALSVAKSTLKHCEPLPYELFQSDYESEFRELIEQLENFEAMKVNPSPPVWNFAISEFKKKNFKLSNGKLKKMNFIWINLETNMELSCEKTGAQMAQDKEFKVLSIPLAGDAGKFVVFFPENQEETIEESLKKLNTRKFQRLIDDLVPKFIHFEHPVFKIQSKFFISENLTMTDRGLTHEKEFEVCHGENNDFRRGLLMDRCEYVPYIFRVNRPFIFCVVQNGVPVTMGIFDGN”, the “soluble on expression in E. coli” value is reported as “not soluble”. With “MAHHHHHHMKLLKVSPEKNIEFPLVHFQAVTQVVKLENISDRKVAFKIKTTAPNNYLVRPSFGLINVKETIDIQIILQPLSDKDNISNDKFQVQCLNVDDDTTVDKQFWVTVNKNEIQDHKLVVVLNDESFSKGPHSYLPPNNNPLTEINNKGHNLNYGENNLNADDANMAEGTNQRRPHRVCAAV” the “soluble on expression in E. coli” value was “soluble”. In the case of “MPGITFKEDANERGRQIEHWPLLKNGSIFVIADDGTRYFQEDAKHRHGHVYTHGSWLIPMNNQHPYLIFDQTQYDAFKQEESQAGQLPYPKFMTKLVSAPTIAQLAAKLGVPANNLQQTVTDFNHYTEVGRDFEFGRDPQTMRQLDDGPYYAIAALEHHHHHH”, the “soluble on expression in E. coli” value is reported as “soluble”. For “MLRALRGAADLLSTALYKNEMMMSRRYLSTPAPEPAKPSSEETTESTEPATSVEDAGEPMKEKRITQPYSSEALTKLKLDQYPLYVEREWWKTGKRMTFWASWRQLRDVKRREQIQEVGADRMRLKAIKFNTILPQAIRDEAAEKMQKARKYDHPRLILNMCQFTGRQRGKIKPYRLSRHLFRRFADRSALSGVQRAMW”, the “soluble on expression in E. coli” value was “not soluble”. In the case of “MGEITQYSVSPALPAGLAIDPQTGVITGTPTAVTASAVYTVTGANSVDSVQALLTIEVAAVAVPPVGLVYVDRLPEYIVGVPITYNEPAYTGGEVTQFSISPALPAGLTLNTQSGVISGTPTVELAQTTFFITASNSAGLEHHHHHH”, the “soluble on expression in E. coli” value is reported as “not soluble”. In the case of “MSSSESPAGIAQIGVTGLAVMGSNIARNFARHGYTVAVHNRSVAKTDALLKEHSSDGKFVRSETIPEFLAALEKPRRVLIMVKAGEATDADAVINELADAMEPGDIIIDGGNALYTDTMRREKAMRERGLHFVGAGISGGEEGALNGPSIMPGGPAESYQSLGPLLEEISAHVDGVPCCTHIGPDGSGHFVKMVHNGIEYSDMQLIGEAYQLMRDGLGLTAPAIADVFTEWNNGDLDSYLVEITAEVLRQTDAKTGKPLVDVIVDRAEQKGTGRWTVKSALDLGVPVTGIAEAVFARALSGSVGQRSAASGLASGKLGEQPADPATFTEDVRQALYASKIVAYAQGFNQIQAGSAEFGWDITPGDLATIWRGGCIIRAKFLNHIKEAFDASPNLASLIVAPYFRGAVESAIDSWRRVVSTAAQLGIPTPGFSSALSYYDALRTARLPAALTQAQRDFFGAHTYGRIDEPGKFHTLWSSDRTEVPV”, the “soluble on expression in E. coli” value is reported as “soluble”. For “PDTSHYALLSNRIVNAVKQYRSQRALEASKDRLSLFIDQSPLGFVEYNQDFEIVRVNETLTEIFGYTETELLGETWETFVSSESYDDVDAVTSALSEASGGYHSVNENVRKDGERIVVEWHNRLVTDDS”, the “soluble on expression in E. coli” value was “not soluble”. In the case of “MAHHHHHHMGNTTDPGAAPLHSSGFFKISARFPKAAVAASGAGPSLKRRRAEAFVVGDDGVPTLRTTAIAPGEQVGGDGTAEPFEFFKAQQDAFMNDIEGIKDAQLQRFNRKARRIMKSRRAWASSSSSGRHANSQQHSSSSGTHVTGSGALSKTGAKKTKPKRY”, the “soluble on expression in E. coli” value is reported as “soluble”.
